{"source": "patent US7119077B1", "about": "“Multimeric forms of members of the steroid/thyroid superfamily of receptors with the ultraspiracle receptor” (The Salk Institute for Biological Studies, priority 1990, dated 2006)", "molecules": {"B1": {"name": "Eip28/29-EcRE (dsDNA)", "DNA 1": "TAAAGGATCTTGACCCCAATGAACTTCTTA", "DNA 2": "TAAGAAGTTCATTGGGGTCAAGATCCTTTA"}, "B2": {"name": "15N-EcRE (dsDNA)", "DNA 1": "ATGAAGTGCATTGAACCCGCTCGA", "DNA 2": "TCGAGCGGGTTCAATGCACTTCAT"}, "B3": {"name": "MLV-TRE (DR4) (dsDNA)", "DNA 1": "GGGTCATTTCAGGTCC", "DNA 2": "GGACCTGAAATGACCC"}, "B4": {"name": "hsp27-EcRE (dsDNA)", "DNA 1": "ATTGGACAAGTGCATTGAACCCTTGTCTCT", "DNA 2": "AGAGACAAGGGTTCAATGCACTTGTCCAAT"}, "B5": {"name": "11N-EcRE (dsDNA)", "DNA 1": "ATGCTGTGCATTGAACGTGCTCGA", "DNA 2": "TCGAGCACGTTCAATGCACAGCAT"}, "B6": {"name": "βRARE (DR5) (dsDNA)", "DNA 1": "GGTTCACCGAAAGTTCA", "DNA 2": "TGAACTTTCGGTGAACC"}}, "key": {"[1]": {"molecular_target": "EcR/usp complex (Drosophila melanogaster, UniProt P20153+P34021)", "conditions": "cold oligonucleotide competitor, in vitro translated EcR and usp", "experimental": "To generate protein in vitro, suitable plasmids for human (h)RARα, hTRB, hVDR, rat PPAR, Drosophila (d)usp and dEcR were linearized with restriction enzyme 3′ of the termination codon. The linearized templates were used for in vitro transcription and then translation using rabbit reticulocyte lysate according to manufacturer's instruction (Promega). […] Schneider cell extracts were prepared following the procedures in Damm et al., Nature Vol. 339:593–597 (1989) and Umesono et al. (1991), supra. The extraction buffer contained 0.4 M KCl in 20 mM HEPES pH 7.5, 20% glycerol, 2 mM DTT and 1 mM PMSF.\nFor gel mobility shift assay, proteins were incubated with binding buffer, which contained 100 mM KCl, 7.5% glycerol, 20 mM HEPES pH 7.5, 2 mM DTT and 0.1% NP-40, on ice for 20 minutes in the presence of 2 μg of nonspecific competitor poly dI-dC and other oligo competitors. Then approximately 1 ng of ^32P-dCTP probe, which was labelled to specific activity about 1–5×10^8 cpm/μg by fill-in reaction with Klenow fragments, was added to the reaction and incubated at room temperature for 20 minutes. […] The reaction was then loaded into 5% non-denaturing polyacrylamide gel in 0.5×TBE running buffer [1×TBE comprises 0.089 M Tris borate, 0.089 M boric acid and 0.002 M EDTA]. After electrophoresis, the gel was dried for autoradiography.\nThe ability of EcR/usp complex to recognize this EcRE was examined."}, "[2]": {"molecular_target": "T1, EcR/usp heterodimer (Drosophila melanogaster, UniProt P34021;P20153 P34021:1-878,P20153:1-508)", "T1 sequence 1": "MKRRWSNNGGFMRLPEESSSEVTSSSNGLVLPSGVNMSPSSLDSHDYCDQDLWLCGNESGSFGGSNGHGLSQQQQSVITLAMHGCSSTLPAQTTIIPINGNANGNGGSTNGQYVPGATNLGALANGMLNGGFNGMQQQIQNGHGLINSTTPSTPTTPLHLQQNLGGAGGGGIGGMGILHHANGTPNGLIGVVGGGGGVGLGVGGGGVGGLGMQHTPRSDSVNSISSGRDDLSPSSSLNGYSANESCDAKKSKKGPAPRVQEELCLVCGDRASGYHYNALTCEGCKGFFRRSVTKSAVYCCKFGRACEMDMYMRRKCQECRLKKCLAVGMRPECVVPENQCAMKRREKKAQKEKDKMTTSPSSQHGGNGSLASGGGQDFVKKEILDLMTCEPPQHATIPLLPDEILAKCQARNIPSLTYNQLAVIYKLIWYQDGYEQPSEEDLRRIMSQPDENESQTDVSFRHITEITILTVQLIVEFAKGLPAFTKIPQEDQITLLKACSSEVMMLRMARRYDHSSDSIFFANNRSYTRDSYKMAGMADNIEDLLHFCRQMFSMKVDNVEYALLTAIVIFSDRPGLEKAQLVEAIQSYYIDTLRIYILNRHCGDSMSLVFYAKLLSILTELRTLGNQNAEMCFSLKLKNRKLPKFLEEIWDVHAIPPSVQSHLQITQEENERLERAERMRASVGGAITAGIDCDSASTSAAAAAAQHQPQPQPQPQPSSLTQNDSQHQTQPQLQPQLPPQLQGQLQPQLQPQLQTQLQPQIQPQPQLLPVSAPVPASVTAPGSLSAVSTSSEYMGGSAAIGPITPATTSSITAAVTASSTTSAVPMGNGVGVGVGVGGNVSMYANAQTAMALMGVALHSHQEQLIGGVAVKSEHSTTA", "T1 sequence 2": "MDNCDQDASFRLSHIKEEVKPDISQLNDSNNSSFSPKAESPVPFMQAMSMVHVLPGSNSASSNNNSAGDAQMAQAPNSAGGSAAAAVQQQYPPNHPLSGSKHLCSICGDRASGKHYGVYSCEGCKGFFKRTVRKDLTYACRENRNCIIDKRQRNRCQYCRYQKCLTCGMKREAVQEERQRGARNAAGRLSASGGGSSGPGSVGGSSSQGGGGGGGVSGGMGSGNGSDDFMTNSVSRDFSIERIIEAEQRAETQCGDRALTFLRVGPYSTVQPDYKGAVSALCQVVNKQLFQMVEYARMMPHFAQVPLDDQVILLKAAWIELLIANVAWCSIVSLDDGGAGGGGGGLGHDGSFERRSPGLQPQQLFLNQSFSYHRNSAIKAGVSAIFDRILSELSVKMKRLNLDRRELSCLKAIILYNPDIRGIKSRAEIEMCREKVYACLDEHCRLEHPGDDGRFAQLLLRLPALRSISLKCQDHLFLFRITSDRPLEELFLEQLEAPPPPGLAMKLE", "assay": "competition; competes as effectively as hsp27-EcRE"}, "[3]": {"molecular_target": "T1, EcR/usp heterodimer", "assay": "competition; effective competitor of hsp27-EcRE binding"}, "[4]": {"molecular_target": "T2, usp/TRβ heterodimer (Drosophila melanogaster / Homo sapiens, UniProt P20153;P10828 P20153:1-508,P10828:1-461)", "T2 sequence 1": "T1 sequence 2", "T2 sequence 2": "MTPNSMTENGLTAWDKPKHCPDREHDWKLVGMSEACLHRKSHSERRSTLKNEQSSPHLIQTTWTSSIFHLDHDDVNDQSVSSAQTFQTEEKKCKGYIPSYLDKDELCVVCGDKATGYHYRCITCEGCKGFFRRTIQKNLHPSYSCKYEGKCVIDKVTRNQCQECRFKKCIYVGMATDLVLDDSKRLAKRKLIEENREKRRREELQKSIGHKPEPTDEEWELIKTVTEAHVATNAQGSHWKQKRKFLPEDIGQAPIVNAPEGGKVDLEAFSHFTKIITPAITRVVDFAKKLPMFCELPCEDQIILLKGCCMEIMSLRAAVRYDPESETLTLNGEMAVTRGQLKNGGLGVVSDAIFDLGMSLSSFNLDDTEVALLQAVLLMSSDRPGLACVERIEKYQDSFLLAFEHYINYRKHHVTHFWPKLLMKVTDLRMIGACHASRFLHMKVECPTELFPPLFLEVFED", "assay": "EMSA; usp dependent; usp antibody supershift", "conditions": "label: 32P", "description": "(§1) For gel mobility shift assay, proteins were incubated with binding buffer, which contained 100 mM KCl, 7.5% glycerol, 20 mM HEPES pH 7.5, 2 mM DTT and 0.1% NP-40, on ice for 20 minutes in the presence of 2 μg of nonspecific competitor poly dI-dC and other oligo competitors. Then approximately 1 ng of ^32P-dCTP probe, which was labelled to specific activity about 1-5×10^8 cpm/μg by fill-in reaction with Klenow fragments, was added to the reaction and incubated at room temperature for 20 minutes. Antiserum or preimmune serum was added 10 minutes after the probe was added. The reaction was then loaded into 5% non-denaturing polyacrylamide gel in 0.5×TBE running buffer [1×TBE comprises 0.089 M Tris borate, 0.089 M boric acid and 0.002 M EDTA]. After electrophoresis, the gel was dried for autoradiography.\nUsing in vitro translated usp protein, interaction of usp with three mammalian nuclear receptors (TRβ, VDR and PPAR) was tested in gel mobility shift assays with the appropriate response element for each of the three receptors as the probes."}, "[5]": {"molecular_target": "T3, Ecdysone receptor (EcR) (Drosophila melanogaster, UniProt P34021 P34021:1-878)", "T3 sequence": "T1 sequence 1", "assay": "EMSA; EcR alone", "conditions": "label: 32P", "description": "as §1\n(§2) The EcR and usp interaction was also tested under more defined conditions. In vitro translated EcR and usp were prepared and their interaction was assayed by gel mobility shift assays. […] To test whether usp can complement EcR DNA binding, as it does with mammalian receptors, both usp and EcR were co-incubated in the reaction. In the presence of both receptors, a novel high affinity DNA binding complex appeared. […] This complex is proposed to be a heterodimeric species, which is consistent with the observation of other usp heterodimers."}, "[6]": {"molecular_target": "T4, ultraspiracle (usp) (Drosophila melanogaster, UniProt P20153 SEQ:1-513)", "T4 sequence": "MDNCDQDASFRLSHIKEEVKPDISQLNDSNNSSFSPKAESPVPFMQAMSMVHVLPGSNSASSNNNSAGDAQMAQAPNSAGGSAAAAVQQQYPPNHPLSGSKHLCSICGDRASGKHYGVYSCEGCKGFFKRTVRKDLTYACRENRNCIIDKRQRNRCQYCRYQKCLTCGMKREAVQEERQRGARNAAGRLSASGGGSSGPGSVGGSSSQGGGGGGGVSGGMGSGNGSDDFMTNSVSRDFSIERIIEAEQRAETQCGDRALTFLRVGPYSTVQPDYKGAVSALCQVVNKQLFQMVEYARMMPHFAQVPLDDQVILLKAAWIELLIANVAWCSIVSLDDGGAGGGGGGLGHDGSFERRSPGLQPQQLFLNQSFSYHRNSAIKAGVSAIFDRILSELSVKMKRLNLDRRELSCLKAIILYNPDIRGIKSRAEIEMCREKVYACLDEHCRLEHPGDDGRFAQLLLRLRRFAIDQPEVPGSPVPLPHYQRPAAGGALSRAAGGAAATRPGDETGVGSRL", "assay": "EMSA; usp alone", "conditions": "label: 32P", "description": "as §1, §2"}, "[7]": {"molecular_target": "T1, EcR/usp heterodimer", "assay": "EMSA; high affinity complex; usp antibody supershift", "conditions": "label: 32P", "description": "as §1, §2"}, "[8]": {"molecular_target": "T1, EcR/usp heterodimer", "assay": "competition; does not compete hsp27-EcRE binding"}, "[9]": {"molecular_target": "T4, ultraspiracle (usp)", "assay": "EMSA; usp alone", "conditions": "label: 32P", "description": "as §1\n(§3) Neither in vitro translated usp alone, nor RARα alone, bound to a βRARE probe. However, when the two proteins were incubated together, a prominent retarded complex appeared. This complex comigrated with the complex detected in the RAR and cell extract mixing experiments. […] Either the affinity purified usp antibody, or the RARα, specifically affected the protein/ DNA complex, while preimmune sera had no effect. […]", "remark": "listed apart in the source"}, "[10]": {"molecular_target": "T5, usp/RARα heterodimer (Drosophila melanogaster / Homo sapiens, UniProt P20153;P10276 P20153:1-508,P10276:1-462)", "T5 sequence 1": "T1 sequence 2", "T5 sequence 2": "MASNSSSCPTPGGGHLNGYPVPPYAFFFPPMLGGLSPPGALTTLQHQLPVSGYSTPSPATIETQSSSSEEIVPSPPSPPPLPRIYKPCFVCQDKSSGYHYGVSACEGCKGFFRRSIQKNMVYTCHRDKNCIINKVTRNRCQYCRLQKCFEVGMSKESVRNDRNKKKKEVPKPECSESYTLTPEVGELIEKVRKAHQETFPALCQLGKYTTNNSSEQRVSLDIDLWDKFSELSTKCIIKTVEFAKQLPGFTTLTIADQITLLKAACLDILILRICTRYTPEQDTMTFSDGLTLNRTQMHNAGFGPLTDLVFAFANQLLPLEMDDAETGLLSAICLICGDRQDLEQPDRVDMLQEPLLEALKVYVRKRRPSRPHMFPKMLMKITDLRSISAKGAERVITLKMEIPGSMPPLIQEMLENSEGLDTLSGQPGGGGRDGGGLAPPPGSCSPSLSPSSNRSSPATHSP", "assay": "EMSA; prominent complex; affected by usp and RARα antibodies", "conditions": "label: 32P", "description": "as §1, §3"}, "[11]": {"molecular_target": "T6, RARα (human) (Homo sapiens, UniProt P10276 P10276:1-462)", "T6 sequence": "T5 sequence 2", "assay": "EMSA; RARα alone", "conditions": "label: 32P", "description": "as §1\nIn gel mobility shift assays using a ^32P-labelled natural RAR response element—βRARE [see SEQ ID NO:15, see also de The et al., in Nature Vol. 343:177–180 (1990); and Sucov et al., in Proc. Natl. Acad. Sci. USA Vol. 87:5392–5398 (1990)] as the probe, in vitro translated RARα was incubated with probe under binding conditions either alone or with 2 µg of S2 extracts or embryo extracts.\nNeither in vitro translated usp alone, nor RARα alone, bound to a βRARE probe. […] This complex comigrated with the complex detected in the RAR and cell extract mixing experiments. […]"}}, "data": [{"molecule": "11N-EcRE: mutant hsp27-EcRE, two nucleotides at the ends of the palindrome and the flanking sequence changed (DNA ATGCTGTGCATTGAACGTGCTCGA; further chemistry not given here)", "values": [{"measurement": "competition of EcR/usp binding to hsp27-EcRE", "setting": "[1]", "value": "did not compete"}]}, {"molecule": "15N-EcRE: back mutation of hsp27-EcRE which regenerated the palindrome motif (DNA ATGAAGTGCATTGAACCCGCTCGA; further chemistry not given here)", "values": [{"measurement": "competition of EcR/usp binding to hsp27-EcRE", "setting": "[1]", "value": "effective competition"}]}, {"molecule": "Eip28/29-EcRE: EcRE derived from the Drosophila Eip28/29 gene, composite element with direct repeat and degenerated palindromic motif (DNA TAAAGGATCTTGACCCCAATGAACTTCTTA; further chemistry not given here)", "values": [{"measurement": "competition of EcR/usp binding to hsp27-EcRE", "setting": "[1]", "value": "can effectively compete"}]}, {"molecule": "B1", "values": [{"measurement": "binding result", "setting": "[2]", "value": "binds"}]}, {"molecule": "B2", "values": [{"measurement": "binding result", "setting": "[3]", "value": "binds"}]}, {"molecule": "B3", "values": [{"measurement": "binding result", "setting": "[4]", "value": "binds"}]}, {"molecule": "B4", "values": [{"measurement": "binding result", "setting": "[5]", "value": "no binding"}, {"measurement": "binding result", "setting": "[6]", "value": "no binding"}, {"measurement": "binding result", "setting": "[7]", "value": "binds"}]}, {"molecule": "B5", "values": [{"measurement": "binding result", "setting": "[8]", "value": "no binding"}]}, {"molecule": "B6", "values": [{"measurement": "binding result", "setting": "[9]", "value": "no binding"}, {"measurement": "binding result", "setting": "[10]", "value": "binds"}, {"measurement": "binding result", "setting": "[11]", "value": "no binding"}]}]}
